# Assay results from PMC11518761, “Making the effect visible – OX40 targeting nanobodies for in vivo imaging of activated T cells” (Frontiers in Immunology, 2024).
# T1: recombinant hOX40, extracellular part (Leu 29 - Ala 216) (human, UniProt P43489 29-216)
# T1 chain: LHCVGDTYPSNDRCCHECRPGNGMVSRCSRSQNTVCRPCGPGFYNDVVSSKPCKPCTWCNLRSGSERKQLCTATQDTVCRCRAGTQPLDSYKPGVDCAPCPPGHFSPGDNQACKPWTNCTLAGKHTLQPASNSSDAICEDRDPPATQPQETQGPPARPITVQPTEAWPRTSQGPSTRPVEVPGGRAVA
# T2: hOX40 full length on U2OS cells (U2OS-hOX40) (human, UniProt P43489 29-277)
# T2 chain: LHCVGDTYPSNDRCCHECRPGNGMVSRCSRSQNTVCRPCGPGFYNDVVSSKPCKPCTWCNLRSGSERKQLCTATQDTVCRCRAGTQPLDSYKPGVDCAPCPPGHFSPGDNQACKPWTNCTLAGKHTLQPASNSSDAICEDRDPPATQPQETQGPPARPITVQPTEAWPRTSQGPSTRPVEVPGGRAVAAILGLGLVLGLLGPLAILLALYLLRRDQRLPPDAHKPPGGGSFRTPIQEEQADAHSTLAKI
# B1: hOX40-Nb O7 (VHH)
# VHH: DVQLVESGGGLVQPGGSLRLSCAASGFTFGSYAMGWARQVPGKGLEWVSGIYSDGSTYYADSVKGRFTISRDNAKNTVYLQMNSLKPEDTAVYYCATWGAAAPYDYWGQGTQVTVSS
# modifications: biotin where immobilised in BLI (site not stated)
# B2: hOX40-Nb O7 (VHH)
# VHH: B1 VHH
# notes: source: E. coli XL-1 (pHEN6), purified (IMAC, SEC)
# B3: AF647-labeled hOX40-Nb O7 (VHH)
# VHH: B1 VHH
# notes: Uncoupled Nb was removed by Ni-NTA, so the His tag is probably lost on sortase coupling (surmised); also called fluorescent Nb O7; source: E. coli XL-1, purified; sortase A coupling, click labelling with DBCO-AF647, HIC
# B4: AF647-labeled hOX40-Nb O7 (VHH)
# VHH: B1 VHH
# modifications: C-terminal Gly-Gly-Gly-propyl-azide attached by sortase A and clicked to DBCO-AF647 (labeling ratio 1:1)
# B5: hOX40-Nb O18 (VHH)
# VHH: QVQLVESGGGLVQPGGSLRLSCAASGFTLEDYVIGWFRQAPGKEREEVSCISGSGGIRNVADSMEGRATISRDNAKNTVYLQMNSLKPEDTAVYYCAAGFETSYSYSYYCGVHEYDYWGQGTLVTVSS
# modifications: biotin where immobilised in BLI (site not stated)
# B6: AF647-labeled hOX40-Nb O18 (VHH)
# VHH: B5 VHH
# notes: Uncoupled Nb was removed by Ni-NTA, so the His tag is probably lost on sortase coupling (surmised); also called O18_(AF647); fluorescently-labeled Nb O18; source: E. coli XL-1, purified; sortase A coupling, click labelling with DBCO-AF647, HIC
# B7: hOX40-Nb O19 (VHH)
# VHH: QVQLQESGGGLVQPGGSLRLSCAGSTDTFSMSAAVSWARQAPGKGLEWVSSILSDGSTYYADSVRGRFTISRDNANNTGSLQMNNLKVEDTAVYYCTNLRGRLWSNHKDDYGGQGSRVTVSS
# modifications: biotin where immobilised in BLI (site not stated)
# B8: AF647-labeled hOX40-Nb O19 (VHH)
# VHH: B7 VHH
# notes: Uncoupled Nb was removed by Ni-NTA, so the His tag is probably lost on sortase coupling (surmised); also called fluorescent Nb O19; source: E. coli XL-1, purified; sortase A coupling, click labelling with DBCO-AF647, HIC
# B9: AF647-labeled hOX40-Nb O19 (VHH)
# VHH: B7 VHH
# modifications: C-terminal Gly-Gly-Gly-propyl-azide attached by sortase A and clicked to DBCO-AF647 (labeling ratio 1:1)
# B10: hOX40-Nb O19 (VHH)
# VHH: B7 VHH
# notes: as for B2
# B11: recombinant hOX40, extracellular part (Leu 29 - Ala 216) (domain or fragment)
# chain: T1 chain
# B12: hOX40-Nb O12 (VHH)
# VHH: DVQLQESGGGLVQPGGSLRLSCAASGFTLDNYAIGWFRQAPGKEREGVSCISSSGESTNYADSVKGRFTISRDNAKNTVYLQTNSLKPEDTAVYYCAAVDDIGTTVQFMCNMGPYEYDYWGQGSPVTVSS
# modifications: biotin where immobilised in BLI (site not stated)
# B13: AF647-labeled hOX40-Nb O12 (VHH)
# VHH: B12 VHH
# notes: Uncoupled Nb was removed by Ni-NTA, so the His tag is probably lost on sortase coupling (surmised); also called fluorescent Nb O12; source: E. coli XL-1, purified; sortase A coupling, click labelling with DBCO-AF647, HIC
# B14: AF647-labeled hOX40-Nb O12 (VHH)
# VHH: B12 VHH
# modifications: C-terminal Gly-Gly-Gly-propyl-azide attached by sortase A and clicked to DBCO-AF647 (labeling ratio 1:1)
# Tests used:
# [1] = biological target: T1, recombinant hOX40, extracellular part …; assay: BLI
# [2] = biological target: T3, recombinant hOX40, extracellular part (Leu 29 - Ala 216) (human, UniProt P43489); assay: BLI; biotinylated Nb (5 µg/mL) immobilised on streptavidin biosensors; hOX40 dilution series 0.2 nM - 320 nM, association 300 s, dissociation 720 s; Octet buffer (PBS, 0.1% BSA, 0.02% Tween20); 1:1 ligand-binding model, global fitting; conditions: both partners purified
# T3 construct: human OX40 (CD134/TNFRSF4), extracellular part, Leu29 to Ala216; The limits are stated for the immunogen; the BLI methods say only 'hOX40' / 'recombinant hOX40'; also called CD134; TNFRSF4; source: bought: Acrobiosystems, produced in human HEK293 cells
# [3] = biological target: T4, murine OX40 on U2OS cells (Mus musculus, UniProt P47741); assay: immunostaining of cells or tissue; live-cell immunofluorescence of U2OS cells expressing hOX40 (stable) or murine OX40 (transient) with 10 -1000 nM AF647-labeled Nbs, 30 min, 4°C; conditions: one partner purified
# T4 construct: murine OX40, DNA bought from Sino Biological (Catalog Number MG50808-NM); The catalogue suffix -NM may denote an N-terminal Myc tag (surmised); also called mOX40; source: U2OS cells, transiently transfected, on the cell surface
# [4] = biological target: T2, hOX40 full length on U2OS cells …; assay: FACS
# [5] = biological target: T1, recombinant hOX40, extracellular part …; assay: BLI
# [6] = biological target: T5, hOX40 full length on U2OS cells (U2OS-hOX40) (Homo sapiens, UniProt P43489); assay: flow cytometry on cells; U2OS-hOX40 cells with dilution series of AF647-labeled Nbs (O12, O18 from 2.5 µM; O7, O19 from 10 µM), 4°C, 30 min, FACS buffer; KD as half-maximum binding at equilibrium, four-parametric sigmoidal model; conditions: one partner purified
# T5 construct: human OX40 (CD134/TNFRSF4), cDNA GenBank NM_003327.3 in an IRES-eGFP/Blasticidin S deaminase vector; Also used as the target of the functional rows, where hOX40 stood on Jurkat-based OX40 effector cells (Promega); also called cellular expressed hOX40; hOX40 full length (D1-4); source: U2OS cells stably overexpressing hOX40, on the cell surface
# [7] = biological target: T6, human OX40 on HT1080 cells (HT1080-hOX40) (Homo sapiens, UniProt P43489); assay: in vivo optical imaging; 5 µg O18-AF647 i.v. in CD1 nude mice with subcutaneous HT1080-hOX40 or HT1080-WT tumors; imaging over 6 h and ex vivo imaging of explanted tumors; conditions: one partner purified
# T6 construct: human OX40 (CD134/TNFRSF4); the construct used for HT1080 cells is not described; source: HT1080 cells stably expressing human OX40, as subcutaneous xenograft tumors in CD1 nude mice
# [8] = biological target: T7, endogenous hOX40 on activated human T cells (Homo sapiens, UniProt P43489); assay: flow cytometry on cells; hPBMCs of three donors after 24 h PHA-L/IL-2 stimulation, AF647-labeled Nbs (200 nM; 400 nM for T cell subpopulations), 4°C, gated on CD3+ (and CD4+, CD8+, Treg); conditions: one partner purified
# T7 construct: human OX40 (CD134/TNFRSF4), endogenous on T cells; also called physiologically expressed hOX40; source: endogenous, hPBMCs of healthy donors stimulated 24 h with PHA-L and IL-2 (CD3+ T cells)
# [9] = biological target: hOX40-Nbs with KD values in the pico- to low nanomolar range (O12, O18 and O19); assay: BLI; biotinylated Nb (5 µg/mL) immobilised on streptavidin biosensors; hOX40 dilution series 0.2 nM - 320 nM, association 300 s, dissociation 720 s; Octet buffer (PBS, 0.1% BSA, 0.02% Tween20); 1:1 ligand-binding model, global fitting
# T4 sequence (P47741 20-272): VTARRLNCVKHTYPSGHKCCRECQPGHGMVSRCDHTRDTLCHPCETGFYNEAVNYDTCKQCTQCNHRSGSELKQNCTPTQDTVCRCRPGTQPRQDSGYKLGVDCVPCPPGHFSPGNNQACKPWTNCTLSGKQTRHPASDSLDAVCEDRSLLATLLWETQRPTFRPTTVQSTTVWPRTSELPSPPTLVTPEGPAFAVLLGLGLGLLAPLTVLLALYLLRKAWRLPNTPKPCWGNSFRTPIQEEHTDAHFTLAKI
binder,measurement,setting,value
B1,koff,[1],0.00117 s⁻¹
B2,Kd,[2],~150 nM
B3,binding result,[3],binds
B4,Kd,[4],5.99 nM
B5,Kd,[5],1.93 nM
same,koff,[1],0.00075 s⁻¹
B6,Kd,[6],~0.3 nM
same,"fold signal intensity in HT1080-hOX40 over HT1080-WT tumors, 6 h post injection",[7],~7 fold
B7,Kd,[5],3.41 nM
same,koff,[1],0.00021 s⁻¹
B8,binding result,[6],binds
same,binding result,[8],binds
B9,Kd,[4],9.95 nM
B10,binding result,[2],binds
B11,Kd,[9],0.2 to 3.4 nM
B12,Kd,[5],0.21 nM
same,koff,[1],2e-05 s⁻¹
B13,Kd,[6],~0.1 nM
B14,Kd,[4],0.07 nM
